{"source": "paper PMC10878280", "about": "(Journal of Virology, 2024)", "binders": {"B1": {"name": "FI6v3 IgG (antibody, V domains shown)", "VH": "QVQLVESGGGVVQPGRSLRLSCAASGFTFSTYAMHWVRQAPGKGLEWVAVISYDANYKYYADSVKGRFTISRDNSKNTLYLQMNSLRAEDTAVYYCAKDSQLRSLLYFEWLSQGYFDYWGQGTLVTVSS", "VL": "not shown", "notes": "not shown: ybbR, C-terminal, kept; copies: 2 + 2"}, "B2": {"name": "S139\\1 IgG (antibody, V domains shown)", "VH": "QVQLQQSGTELKKPGASVKISCKATGYTFSSYWIEWIKQRPGHGLEWIGEILPEIGMTNYNENFKGKATFTANTSSNTVYMQLSSLTSEDSAVYYCARPYDYSWFAYWGQGTLVTVSA", "VL": "DIVMTQSQKFMSTSVGDRVSVTCKASQNVDTNVAWYQEKPGQSPKTLIYSASNRYSGVPDRFTGSASGTDFTLTITNVQSEDLAEYFCQQYNSYPYTFGGGTKLEIK", "notes": "as for B1"}, "B3": {"name": "C05 IgG (antibody, V domains shown)", "VH": "QVQLQESGGGLVQPGESLRLSCVGSGSSFGESTLSYYAVSWVRQAPGKGLEWLSIINAGGGDIDYADSVEGRFTISRDNSKETLYLQMTNLRVEDTGVYYCAKHMSMQQVVSAGWERADLVGDAFDVWGQGTMVTVSS", "VL": "DIQLTQSPSSLSASVGDRVTLTCQASQDIRKFLNWYQQKPGKGPKLLIYDASNLQRGVPSRFSGGGSGTDFTLIISSLQPEDVGTYYCQQYDGLPFTFGGGTKVVIK", "notes": "as for B1"}}}
{"molecular_target": "T1, hemagglutinin (HA) of A/WSN/1933, on transfected HEK-293T cells (Influenza A virus A/WSN/1933 (H1N1), UniProt P03454)", "T1 construct": "source: HEK-293T, transfected with HA-expressing plasmid, on cells", "assay": "fluorescence imaging with FRAP of labelled antibody on transfected cells", "settings": "one partner purified"}
{"binder": "B1", "binding result": "binds"}
{"binder": "B2", "binding result": "binds"}
{"binder": "B3", "binding result": "binds"}
